Numbering of substitutions follows the chain as printed. Values belong to the binder of their own block, whether it stands above or below them.
What was measured:
[1] = biological target: T1, human 5T4 on transfected cells (human, UniProt Q13641 32-420); experiment: flow cytometry, 5T4-transfected B16 cells
T1 construct: whole, on cells; for B16 and A9 cells only a 5T4 construct is named; also called 5T4-transfected B16 cells; B16-5T4
T1 sequence (looked up): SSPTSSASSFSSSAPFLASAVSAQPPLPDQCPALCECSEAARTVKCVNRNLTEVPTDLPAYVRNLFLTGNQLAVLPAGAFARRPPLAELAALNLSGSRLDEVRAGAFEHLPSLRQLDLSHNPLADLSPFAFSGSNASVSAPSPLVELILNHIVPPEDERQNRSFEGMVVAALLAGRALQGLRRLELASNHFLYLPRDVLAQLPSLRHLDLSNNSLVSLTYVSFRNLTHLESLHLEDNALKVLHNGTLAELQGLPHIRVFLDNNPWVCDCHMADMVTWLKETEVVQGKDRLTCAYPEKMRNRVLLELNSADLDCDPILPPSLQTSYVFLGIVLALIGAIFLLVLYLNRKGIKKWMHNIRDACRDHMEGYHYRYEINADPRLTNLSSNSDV
Method: (§1) Analysis of 5T4 mAb binding with flow cytometry was performed using 5T4-transfected cell lines and as negative control, mock transfected cells. Three different transfected cell lines used were used for this study; B16, A9 and CHO, transfected either with a 5T4 construct or with an empty vector control construct. Cells were stained with 5T4 antibodies diluted in FACS buffer (PBS, 0.5% BSA and 0.02% NaN₃). […] Samples were analysed either on a FACSCalibur or a FACSverse (BD Biosciences, Heidelberg, Germany) and mean fluorescence intensity (MFI) determined.

[2] = biological target: T1, human 5T4 on transfected cells; experiment: flow cytometry, CHO cells stably transfected with human 5T4
Method: as §1
In a new attempt to calculate EC50 with flow cytometry a 5T4 mAb dose response experiment was performed using CHO cells stably transfected with human 5T4.

[3] = biological target: T2, 5T4 (immobilised for SPR) (UniProt Q13641 32-355, limits assumed, biotinylated on the MASS-1 platform); experiment: SPR Biacore 3000, 5T4 amine-coupled, mAb injected, 1:1 Langmuir
T2 construct: also called biotinylated 5T4
T2 sequence (looked up): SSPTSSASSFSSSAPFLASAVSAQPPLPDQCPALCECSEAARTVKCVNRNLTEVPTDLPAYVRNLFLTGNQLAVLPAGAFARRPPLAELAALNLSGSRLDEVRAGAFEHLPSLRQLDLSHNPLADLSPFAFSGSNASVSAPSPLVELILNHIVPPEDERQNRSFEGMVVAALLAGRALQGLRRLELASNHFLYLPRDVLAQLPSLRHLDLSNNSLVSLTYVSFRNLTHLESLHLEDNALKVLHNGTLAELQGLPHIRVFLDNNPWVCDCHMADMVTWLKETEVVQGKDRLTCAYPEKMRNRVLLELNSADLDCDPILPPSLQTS
Method: (§2) Binding kinetics of the 5T4-specific mAbs have been studied using two different SPR-based platforms, the Biacore 3000 (GE Healthcare) and the MASS-1 platform (Sierra Sensors). Briefly, 5T4 was captured at the sensor chip surface either via direct amine coupling (Biacore platform) or using a streptavidin coated chip and biotinylated 5T4 (MASS-1 platform). The different 5T4-specific mAbs were then injected over the chip in increasing concentrations and the association and dissociation rates studied in real time. A 1:1 Langmuir model was used for curve fitting.

[4] = biological target: T2, 5T4 (immobilised for SPR); experiment: SPR MASS-1, biotinylated 5T4 on streptavidin chip, mAb injected, 1:1 Langmuir
Method: as §2

cynomolgus 5T4 = biological target: T3, cynomolgus 5T4 (Macaca mulatta (cynomolgus)); experiment: flow cytometry, CHO cells with cynomolgus 5T4 against CHO cells with human 5T4
T3 construct: whole, on cells; stably transfected CHO cells; also called cyno5T4; cy5T4
Method: The potency of 5T4 antibodies in binding to cynomolgus 5T4 was determined by flow cytometry. CHO cells were stably transfected with […] (cynomolgus) 5T4. […] Samples were analysed either on a FACSCalibur or a FACSverse (BD Biosciences, Heidelberg, Germany) and mean fluorescence intensity (MFI) determined. […] To compare the EC50 values between human and cynomolgus 5T4, the cy5T4/hu5T4 ratio was calculated from the experiment with the full dose-response.

[5] = biological target: T4, human/mouse 5T4 chimera E2; experiment: flow cytometry, cells with 5T4 chimera; % positive cells over that of the best clone
T4 construct: on stably transfected CHO cells
Method: (§3) Epitope mapping was performed by investigation of loss of binding by the antibodies using a panel of human/mouse chimeric 5T4 constructs by flow cytometry. […] Two strategies were used for the epitope mapping as illustrated in FIG. 5. In one approach, seven human/mouse 5T4 chimeras were constructed based on dividing 5T4 into seven different domains (FIG. 5). By replacing each domain with the corresponding mouse sequence seven human/mouse 7 5T4 human/mouse chimeras were generated. The chimeras were generated using the human protein 5T4 sequence NP_006661.1 (reference mRNA sequence NM_006670.4) and the corresponding mouse sequence NP_035757.2 (reference mRNA sequence NM_011627.4). The human/mouse chimeric DNA constructs, as well as human and mouse wild-type 5T4, were cloned into pcDNA3.1 expression vectors. […] In the other approach, cells transfected with a human/mouse 5T4 chimera (Woods et al., 2002) was used, in which mouse sequence in amino acid 173-420 replaced the human sequence (FIG. 5). As controls human 5T4 and mouse 5T4-transfected cells were used.
(§4) For flow cytometric analysis, cells were stained with different 5T4 antibodies diluted in FACS buffer (PBS, 0.5% BSA). […] Samples were analysed by FACSverse (BD Biosciences, Heidelberg, Germany) and % positive cells were determined. To compensate for variations in % 5T4 positive cells in the various transfected populations, binding levels were normalized within each chimera by dividing % positive cells for each clone with % positive cells for the clones resulting in the highest % positive cells (% pos cellsclonX/% positive cellsₘₐₓ). A normalized value≤0.75 was defined as mAb binding being dependent on the replaced region, whereas a normalized value≤0.25 was defined as complete dependence.

[6] = biological target: T5, human/mouse 5T4 chimera E3; experiment: as above
T5 construct: on stably transfected CHO cells
Method: as §3, §4

[7] = biological target: T6, human/mouse 5T4 chimera E6; experiment: as above
T6 construct: on stably transfected CHO cells
Method: as §3, §4

[8] = biological target: T7, human/mouse 5T4 chimera E7; experiment: as above
T7 construct: on stably transfected CHO cells
Method: as §3, §4

EC50 [1]: 0.8 nM | Normalized EC50 (to 1628) [1]: 1.6 ratio to 1628 | EC50 [2]: 0.81 nM | EC50 normalized to reference 1628 [2]: 1.6 ratio to 1628 | Kd [3]: 0.2 nM | koff [3]: 0.0001 s⁻¹ | kon [3]: 500000 M⁻¹ s⁻¹ | koff [4]: 0.00019 s⁻¹ | kon [4]: 510000 M⁻¹ s⁻¹ | Ratio EC50cyno-5T4/h5T4 (cynomolgus 5T4): 0.9 ratio | normalized % positive cells [5]: 0.02 | normalized % positive cells [6]: 0.9 | normalized % positive cells [7]: 0.89 | normalized % positive cells [8]: 0.96
B1: 1210/1211 (antibody, IgG1, V domains shown)
VH: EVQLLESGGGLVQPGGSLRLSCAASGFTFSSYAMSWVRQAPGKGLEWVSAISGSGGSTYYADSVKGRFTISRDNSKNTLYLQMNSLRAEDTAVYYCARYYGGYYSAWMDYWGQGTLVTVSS
VL: DIQMTQSPSSLSASVGDRVTITCRASQSISSYLNWYQQKPGKAPKLLIYAASSLQSGVPSRFSGSGSGTDFTLTISSLQPEDFATYYCQQTYGYLHTFGQGTKLEIK
notes: 5T4 antibody

EC50 [1]: 1.8 nM | Normalized EC50 (to 1628) [1]: 3.9 ratio to 1628 | EC50 [2]: 0.51 nM | EC50 normalized to reference 1628 [2]: 1 ratio to 1628 | Kd [3]: 2.3 nM | koff [3]: 0.00028 s⁻¹ | kon [3]: 130000 M⁻¹ s⁻¹ | koff [4]: 0.00013 s⁻¹ | kon [4]: 1.4e+06 M⁻¹ s⁻¹ | Ratio EC50cyno-5T4/h5T4 (cynomolgus 5T4): 3 ratio | normalized % positive cells [5]: 0.74 | normalized % positive cells [6]: 0.25 | normalized % positive cells [7]: 0.94 | normalized % positive cells [8]: 0.94
B2: 1206/1207 (antibody, V domains shown)
VH: EVQLLESGGGLVQPGGSLRLSCAASGFTFSGSSMSWVRQAPGKGLEWVSSIYYSGSGTYYADSVKGRFTISRDNSKNTLYLQMNSLRAEDTAVYYCARYGRNVHPYNLDYWGQGTLVTVSS
VL: B1 VL with T91G, G93Y, H96P
notes: 5T4 antibody

— US20190161555A1 (ALLIGATOR BIOSCIENCE, published 2019)
